Data taken from patent US20240092872A1 (VIR BIOTECHNOLOGY, published 2024).

Columns and labels:
[1] = molecular target: T1, Human complement component C1q (human, UniProt P02745 23-245; P02746 28-253; P02747 29-245); assay: BLI (Octet RED96); IgG captured through the Fab on anti-human Fab (CH1) sensors
T1 construct: mature; also called purified human C1q
Experimental: IgG-loaded sensors were then exposed for 4 minutes to a solution of kinetics buffer (pH 7.1) containing 3 μg/ml of purified human C1q (left part of the plot), followed by a dissociation step in the same buffer for 4 additional minutes (right part of the plot). Association and dissociation profiles were measured in real time as change in the interference pattern using an Octet RED96 (FortéBio).

[2] = molecular target: T2, Recombinant human FcγRIIa (H131) (human, UniProt P12318 34-218); assay: BLI (Octet RED96); His-tagged FcγR on anti-penta-His sensors, 2 µg/ml mAb cross-linked with anti-human F(ab')2
T2 construct: also called FcγRIIa allele H131; His-tagged human FcγRIIa H131
T2 sequence: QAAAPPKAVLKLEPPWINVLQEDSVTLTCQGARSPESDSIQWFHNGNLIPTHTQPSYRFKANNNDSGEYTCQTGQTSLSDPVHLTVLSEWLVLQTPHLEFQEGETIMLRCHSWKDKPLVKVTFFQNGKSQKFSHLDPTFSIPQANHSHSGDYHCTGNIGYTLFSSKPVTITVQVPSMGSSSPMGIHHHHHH
Experimental: (§1) Briefly, His-tagged human FcγRs (FcγRIIa allele H131, FcγRIIa allele R131, FcγRIIAa allele F158, FcγRIIIa allele V158 and FcγRIIb) at 2 μg/ml were captured onto anti-penta-His sensors for 6 minutes. FcγR-loaded sensors were then exposed for 4 minutes to a solution of kinetics buffer (pH 7.1) containing 2 μg/ml of each mAb in the presence 1 μg/ml of affiniPure F(ab′)₂ Fragment Goat Anti-Human IgG, F(ab′)₂ fragment-specific (to cross-link human mAbs through the Fab fragment), followed by a dissociation step in the same buffer for 4 additional minutes (right part of the plot). Association and dissociation profiles were measured in real time as change in the interference pattern using an Octet RED96 (FortéBio).

[3] = molecular target: T3, Recombinant human FcγRIIIa (F158) (human, UniProt P08637 17-208); assay: as above
T3 construct: also called FcγRIIIa allele F158; His-tagged human FcγRIIIa F158
Experimental: as §1

[4] = molecular target: T4, His-tagged human FcγRIIa allele R131 (human, UniProt P12318 34-218); assay: as above
T4 construct: also called FcγRIIa R131
T4 sequence (looked up): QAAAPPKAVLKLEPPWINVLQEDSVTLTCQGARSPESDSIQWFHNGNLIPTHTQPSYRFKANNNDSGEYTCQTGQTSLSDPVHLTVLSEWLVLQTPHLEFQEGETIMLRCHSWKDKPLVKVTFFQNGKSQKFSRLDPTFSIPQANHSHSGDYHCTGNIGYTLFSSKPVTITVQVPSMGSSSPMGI
Experimental: as §1

[5] = molecular target: T5, Recombinant human FcγRIIIa (V158) (human, UniProt P08637 17-208); assay: as above
T5 construct: also called FcγRIIIa allele V158; His-tagged human FcγRIIIa V158
T5 sequence (P08637 other isoform, or with tags, fused parts or gaps limits assumed): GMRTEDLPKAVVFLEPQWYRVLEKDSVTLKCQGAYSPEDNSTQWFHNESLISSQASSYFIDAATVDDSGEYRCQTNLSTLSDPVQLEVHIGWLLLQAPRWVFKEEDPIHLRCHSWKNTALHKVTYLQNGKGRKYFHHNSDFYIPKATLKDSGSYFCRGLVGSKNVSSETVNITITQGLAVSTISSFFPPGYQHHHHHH
Experimental: as §1

T3 sequence (P08637 other isoform, or with tags, fused parts or gaps limits assumed): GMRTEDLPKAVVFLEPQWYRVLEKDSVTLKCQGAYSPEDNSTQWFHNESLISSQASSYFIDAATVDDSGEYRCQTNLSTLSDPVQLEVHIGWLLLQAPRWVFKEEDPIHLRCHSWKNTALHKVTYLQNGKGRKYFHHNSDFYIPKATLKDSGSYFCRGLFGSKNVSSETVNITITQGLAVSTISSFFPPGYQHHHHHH
T1 sequence (P02745 23-245, chain 1 of 3): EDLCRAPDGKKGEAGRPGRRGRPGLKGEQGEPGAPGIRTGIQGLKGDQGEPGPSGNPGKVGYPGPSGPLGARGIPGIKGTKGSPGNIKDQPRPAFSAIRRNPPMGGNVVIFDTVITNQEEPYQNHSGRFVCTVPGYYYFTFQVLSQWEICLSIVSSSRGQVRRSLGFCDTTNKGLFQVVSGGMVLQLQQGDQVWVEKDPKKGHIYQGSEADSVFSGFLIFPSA
T1 sequence (P02746 28-253, chain 2 of 3): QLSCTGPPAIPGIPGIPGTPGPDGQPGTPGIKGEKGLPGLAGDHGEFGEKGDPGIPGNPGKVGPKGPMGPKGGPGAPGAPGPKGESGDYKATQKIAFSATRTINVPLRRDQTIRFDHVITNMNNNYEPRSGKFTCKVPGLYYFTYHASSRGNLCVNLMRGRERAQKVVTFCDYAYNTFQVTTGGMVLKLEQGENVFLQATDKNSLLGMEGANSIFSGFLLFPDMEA
T1 sequence (P02747 29-245, chain 3 of 3): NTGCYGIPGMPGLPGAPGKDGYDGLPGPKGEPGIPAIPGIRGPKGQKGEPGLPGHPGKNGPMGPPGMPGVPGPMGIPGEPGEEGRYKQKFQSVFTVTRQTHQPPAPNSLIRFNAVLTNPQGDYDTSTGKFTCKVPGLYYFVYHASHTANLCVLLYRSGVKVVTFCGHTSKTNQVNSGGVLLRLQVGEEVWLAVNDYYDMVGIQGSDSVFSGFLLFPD

B1: HBC34-V35-MLNS-GAALIE (antibody, human IgG1, lambda)
heavy: ELQLVESGGGWVQPGGSQRLSCAASGRIFRSFYMSWVRQAPGKGLEWVATINQDGSEKLYVDSVKGRFTISRDNAKNSLFLQMNNLRVEDTAVYYCAAWSGNSGGMDVWGQGTTVSVSSASTKGPSVFPLAPSSKSTSGGTAALGCLVKDYFPEPVTVSWNSGALTSGVHTFPAVLQSSGLYSLSSVVTVPSSSLGTQTYICNVNHKPSNTKVDKKVEPKSCDKTHTCPPCPAPELLAGPSVFLFPPKPKDTLMISRTPEVTCVVVDVSHEDPEVKFNWYVDGVEVHNAKTKPREEQYNSTYRVVSVLTVLHQDWLNGKEYKCKVSNKALPLPEEKTISKAKGQPREPQVYTLPPSRDELTKNQVSLTCLVKGFYPSDIAVEWESNGQPENNYKTTPPVLDSDGSFFLYSKLTVDKSRWQQGNVFSCSVLHEALHSHYTQKSLSLSPGK
light: SYELTQPPSVSVSPGQTVSIPCSGDKLGNKNVAWFQHKPGQSPVLVIYEVKYRPSGIPERFSGSNSGNTATLTISGTQAMDEAAYFCQTFDSTTVVFGGGTRLTVLGQPKAAPSVTLFPPSSEELQANKATLVCLISDFYPGAVTVAWKADSSPVKAGVETTTPSKQSNNKYAASSYLSLTPEQWKSHRSYSCQVTHEGSTVEKTVAPTECS
- binding result [1]: no binding (tested: 3 µg/ml of purified human C1q)
- binding result [2]: binds
- binding result [3]: binds
- binding result [4]: binds
- binding result [5]: binds
